The target of assay [1] is T1, Human TfR-AVI-His (control) (human, UniProt P02786 89-760).
T1 construct: control protein; also called Avi-His-tagged human TfR; human transferrin receptor
In words: ELISA, hybridoma supernatant. The method, boiled down: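 Binding of hybridoma supernatants (30 min, room temperature) was read as 450 nm absorbance after TMB development and sulfuric acid quench. Antigens, Avi-His-tagged CD98hc from human, cyno or mouse plus human TfR, were captured at 1 μg/ml onto streptavidin-coated wells for 1 h.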
A general note: In an ELISA, binding on a coated surface is turned into a signal by an enzyme label.

In assay [2] the target is T2, Full length human CD98hc on CHO cells (human).
T2 construct: CHO cells stably overexpressing it; also called CHO-human CD98hc; CHO-huCD98hc
T2 chain: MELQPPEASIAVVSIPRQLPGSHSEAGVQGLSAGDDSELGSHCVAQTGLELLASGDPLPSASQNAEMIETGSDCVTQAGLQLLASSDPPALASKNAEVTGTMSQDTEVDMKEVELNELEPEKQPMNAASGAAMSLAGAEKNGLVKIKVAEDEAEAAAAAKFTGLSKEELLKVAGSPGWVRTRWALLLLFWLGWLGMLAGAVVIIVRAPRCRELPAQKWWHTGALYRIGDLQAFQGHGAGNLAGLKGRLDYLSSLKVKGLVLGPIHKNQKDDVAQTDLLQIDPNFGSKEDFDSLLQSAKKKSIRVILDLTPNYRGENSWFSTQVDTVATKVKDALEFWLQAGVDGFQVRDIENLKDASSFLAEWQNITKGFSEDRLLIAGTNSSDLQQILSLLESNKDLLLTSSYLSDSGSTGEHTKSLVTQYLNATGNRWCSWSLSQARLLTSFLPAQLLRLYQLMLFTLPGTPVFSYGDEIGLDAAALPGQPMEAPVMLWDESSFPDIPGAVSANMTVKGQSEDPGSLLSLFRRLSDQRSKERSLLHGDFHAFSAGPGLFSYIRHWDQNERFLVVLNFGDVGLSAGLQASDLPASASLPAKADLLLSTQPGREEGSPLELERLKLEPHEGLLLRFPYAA
In words: FACS, hybridoma supernatant. For orientation: A flow cytometer gives signals particle by particle.

Assay [3] addresses T3, human CD98hc endogenously expressed on HCMEC/D3 cells (human).
T3 construct: human brain endothelial cell line
T3 chain: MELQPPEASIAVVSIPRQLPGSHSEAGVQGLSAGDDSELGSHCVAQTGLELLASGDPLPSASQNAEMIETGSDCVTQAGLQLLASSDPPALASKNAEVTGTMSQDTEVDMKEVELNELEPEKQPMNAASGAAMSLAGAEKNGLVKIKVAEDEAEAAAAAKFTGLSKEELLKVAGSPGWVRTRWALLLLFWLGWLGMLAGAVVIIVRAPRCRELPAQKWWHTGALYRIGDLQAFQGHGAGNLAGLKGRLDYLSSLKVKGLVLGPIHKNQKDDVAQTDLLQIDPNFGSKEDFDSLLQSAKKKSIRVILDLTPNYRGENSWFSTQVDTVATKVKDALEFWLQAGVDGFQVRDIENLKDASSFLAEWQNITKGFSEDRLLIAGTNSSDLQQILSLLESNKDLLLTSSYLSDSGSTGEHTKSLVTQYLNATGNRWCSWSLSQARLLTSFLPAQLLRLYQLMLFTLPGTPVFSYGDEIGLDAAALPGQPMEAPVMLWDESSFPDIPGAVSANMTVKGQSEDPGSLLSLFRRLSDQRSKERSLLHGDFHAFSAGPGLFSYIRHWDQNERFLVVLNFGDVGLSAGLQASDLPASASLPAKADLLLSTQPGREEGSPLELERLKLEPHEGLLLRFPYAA
In words: FACS, hybridoma supernatant.

Assay [4] deals with T4, Full length mouse CD98hc on CHO cells (mouse, UniProt P10852 1-526).
T4 construct: CHO cells stably overexpressing it; also called CHO-mouse CD98hc; CHO-mCD98hc
T4 sequence: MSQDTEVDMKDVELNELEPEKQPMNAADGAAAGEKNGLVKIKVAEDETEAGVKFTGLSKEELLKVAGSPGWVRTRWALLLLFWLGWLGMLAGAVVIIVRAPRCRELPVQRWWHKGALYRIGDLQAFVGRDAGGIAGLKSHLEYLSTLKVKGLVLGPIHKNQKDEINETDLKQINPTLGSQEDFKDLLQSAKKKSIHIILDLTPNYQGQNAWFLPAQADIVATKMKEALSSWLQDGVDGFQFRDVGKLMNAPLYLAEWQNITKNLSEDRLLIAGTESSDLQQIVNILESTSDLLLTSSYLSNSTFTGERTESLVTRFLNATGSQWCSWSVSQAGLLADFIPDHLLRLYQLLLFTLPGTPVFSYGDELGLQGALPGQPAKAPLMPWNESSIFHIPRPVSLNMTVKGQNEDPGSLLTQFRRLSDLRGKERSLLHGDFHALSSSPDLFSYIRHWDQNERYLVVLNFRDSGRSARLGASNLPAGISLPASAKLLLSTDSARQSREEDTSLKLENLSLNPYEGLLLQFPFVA
In words: FACS, hybridoma supernatant.

The target of assay [5] is T4, Full length mouse CD98hc on CHO cells. In words: FACS, hybridoma supernatant. This is another data set of the same source.

We go through 5 molecules from US20250270341A1 (Alector, published 2025).

T1 sequence (P02786 89-760 limits assumed): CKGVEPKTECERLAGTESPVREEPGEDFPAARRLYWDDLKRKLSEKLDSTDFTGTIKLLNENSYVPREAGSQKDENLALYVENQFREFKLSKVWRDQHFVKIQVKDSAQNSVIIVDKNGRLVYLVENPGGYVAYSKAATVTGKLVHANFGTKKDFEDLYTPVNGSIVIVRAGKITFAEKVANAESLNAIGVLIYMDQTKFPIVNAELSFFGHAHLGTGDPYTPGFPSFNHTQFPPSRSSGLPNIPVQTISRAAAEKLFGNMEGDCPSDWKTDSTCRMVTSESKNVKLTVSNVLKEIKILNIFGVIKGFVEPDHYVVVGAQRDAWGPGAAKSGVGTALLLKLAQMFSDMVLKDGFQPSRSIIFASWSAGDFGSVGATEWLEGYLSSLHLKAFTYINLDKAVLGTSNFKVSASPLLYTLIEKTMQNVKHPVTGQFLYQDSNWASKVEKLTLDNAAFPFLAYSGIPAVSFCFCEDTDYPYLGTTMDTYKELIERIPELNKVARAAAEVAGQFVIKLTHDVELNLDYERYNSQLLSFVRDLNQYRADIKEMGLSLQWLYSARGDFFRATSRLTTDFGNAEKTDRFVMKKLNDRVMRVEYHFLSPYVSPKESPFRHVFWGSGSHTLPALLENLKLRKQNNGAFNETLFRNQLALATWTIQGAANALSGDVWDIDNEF

B1: CD98HC.03.004 (antibody, V domains shown)
VH: DVQLQESGPGLVKPSQSLSLTCTVTGYSITNNYAWNWIRRFPGNKLEWMAYISYSGYTSYNPSLKSRISITRDTSKNQFFLQLNSVTTEDTATYYCTGYFYYYGGGSFDYWGQGTTLTVSS
VL: QAVVTQESALTTSPGETVTLTCRSSTGAVTTSNFANWVQEKPDHLFTGLIRGSNNRAPGVPARFSGSLIGDKAALTITGARTEDEAIYFCALWYSDHWVFGGGTKLTVL
notes: hybridoma IgG
As to B1, in assay [1], the OD450 was found to be 0.0905. Moreover, the entries for the “MFI ratio over secondary antibody” value in assay [2], in assay [3] and in assay [4] were 34.4, 189 and 1, respectively. Moreover, the binding result in assay [5] is given as “no binding”.

B2: CD98HC.04.063 (antibody, V domains shown)
VH: EVKLEESGGGLVQPGGSMILSCVASGFTFSNSWMNWVRQSPEKGLEWVAEIRLRSNNYATHYAESVKGRFTISRDDSKSTVYLQMNNLRAEDTGIYYCSRGDPGAYWGQGTLVTVSA
VL: DIQMTQSSSYLSVSLGNRVTITCKASDHIKNWLAWFQQKPGNAPRLLISGATILETGVPSRFSGSGSGKDYTLSITSLQTEDVATYYCQQYWSTPYTFGGGTKLEIK
notes: hybridoma IgG
As for B2, in assay [1], the OD450 came to 0.0629. For the same molecule, the “MFI ratio over secondary antibody” value came to 34.4 in assay [2], 124 in assay [3] and 1.2 in assay [4]. Moreover, the binding result in assay [5] is given as “no binding”.

B3: CD98HC.04.064 (antibody, V domains shown)
VH: QVQLQQPGAELVRPGASVKLSCKASGYTFTSYWMNWVRQRPGQGLEWIGLIDPSDSETHYNQMFKDRATLTVDKSSSTAYMQLSSLTSADPAVYYCARASYGKGYFDYWGQGTTLTVSS
VL: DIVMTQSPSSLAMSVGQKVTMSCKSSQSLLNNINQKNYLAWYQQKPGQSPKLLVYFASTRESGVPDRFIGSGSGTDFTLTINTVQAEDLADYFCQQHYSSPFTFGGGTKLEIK
notes: hybridoma IgG
The molecule B3 had an OD450 in assay [1] of 0.0639. Also, the “MFI ratio over secondary antibody” value in assay [2] turned out to be 46.6; in assay [3], 277; in assay [4], 1.2. Besides, in assay [5], the binding result is listed as “no binding”.

B4: CD98HC.04.062 (antibody, V domains shown)
VH: EVQLVESGGDLVKPGGSLKLSCTASRFAFSTYDMSWVRQTPEKRLEWVAYISSGGGSTYFPDTVKGRFTISRDNAKNTLYLQMSSLKSEDTAMYYCARQDGHYPWFPYWGQGTLVTVSA
VL: DIVMSQSPSSLAVSVGEKVTMSCKSSQSLLYSGNQKTYLAWYQQKPGQSPKPLIYWASTRESGIPDRFTGSGSGTDFTLTISSVKAEDLAVYYCQQYYSYPPTFGAGTKLELK
notes: hybridoma IgG
In assay [1], B4 displayed an OD450 of 0.0561. For the same molecule, the figures for the “MFI ratio over secondary antibody” value in assay [2], in assay [3] and in assay [4] were 25.1, 91.8 and 1.3, respectively. Moreover, in assay [5], the binding result is on record as “no binding”.

B5: CD98HC.03.010 (antibody, V domains shown)
VH: EVQLQQSGTELVKPGASVKLSCTASGLDIKDTYLHWVKQRPEQGLEWIGKIDPANGNTKYNPKFQGKATITADTSSNTAYLQLSSLTSEDTAVHYCTTPYYSGSSYGDYWGQGTTLTVSS
VL: QIVLTQSPAIMSASPGEKVTLTCSASSSVSSSYLYWYQQKPGSSPKLWIYSTSNLASGVPARFSGSGSGTSYSLTISSMEAEDAASYFCHQWSRYPLTFGAGTKLELK
notes: hybridoma IgG
B5 yielded an OD450 in assay [1] of 0.0588. For the same molecule, the “MFI ratio over secondary antibody” value in assay [2] was 25.8; in assay [3], 190; in assay [4], 1. In assay [5], the binding result is reported as “no binding”.
